Peptide text beside a SMILES is read from it. * marks the point of attachment. Cbz = O=C(OCc1ccccc1)*; OtBu = CC(C)(C)O*
What was measured:
Assay type in all cases: cell-based, human
[1] = system: wild-type and variant SNAP-GIPR in INS-1 cells; experiment: Proteasomal inhibition, total SNAP-GIPR in INS-1 cells; settings: for total SNAP-GIPR level with PSI: 100 μM, 4 h, INS-1, scaled to experimental average without PSI; for total SNAP-GIPR level after proteasomal inhibition: INS-1, 100 μM, 4 hours
Experimental: INS-1 cells were reverse transfected with the GIPR variant or wild-type plasmids in 96-well, clear-bottom, black microplates precoated with poly-D-lysine. All variants were tested in parallel on each occasion to control for transfection efficiency differences between experiments. Twelve hours posttransfection, the cells were treated with either vehicle or Proteasome Inhibitor I (Merck) for 4 hours. Following this, the cells were labeled with the cell-permeable SNAP-tag probe BG-OG ([29]) for 10 min at 37°C to label total SNAP. Cells were then imaged as in the “Assessment of surface GIPR expression by SNAP-tag labeling in cell lines” section to establish total GIPR labeling (surface and intracellular). Images were analyzed as in the “Assessment of surface GIPR expression by SNAP-tag labeling in cell lines” section.

[2] = system: wild-type and variant SNAP-GIPR in INS-1 cells; experiment: Bafilomycin A1 effect on surface SNAP-GIPR in INS-1 cells; settings: inhibition of constitutive GIPR down-regulation; fig. S2A
Experimental: Twenty-four hours before the experiment, AD293 or INS-1 cells were reverse transfected with GIPR variant or wild-type plasmids using Lipofectamine 2000 in 96-well, clear-bottom, black microplates precoated with poly-D-lysine. All variants were tested in parallel on each occasion to control for transfection efficiency differences between experiments.

[3] = system: wild-type and variant SNAP-GIPR; experiment: Constitutive and agonist-mediated internalization, reversible SNAP-tag labelling, INS-1 cells; parameters: key to Internalisation, GIP-only / Internalisation, Vehicle / Internalisation, +GIP: % internalization: residual fluorescence after Mesna vs pre-Mesna; settings: Mean
Method in brief: (§1)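 Percentage internalization is read as the fraction of specific SNAP fluorescence that survives Mesna stripping, compared with the image taken before Mesna. Wells are imaged in TNE buffer at pH 8.6 and again after 10 min.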

[4] = system: wild-type and variant SNAP-GIPR; experiment: Surface SNAP-GIPR expression (SNAP-tag labelling) in INS-1 cells; settings: Fig 4G; Mean
Method in brief: (§2)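 Read-out: whole-cell fluorescence of surface-only SNAP label (Alexa Fluor 647, 500 nM, 10 min, RT), wide-field 20X, several FOVs per well. Flat-field corrected, phase-contrast masked, nontransfected-well signal subtracted; normalized to experiment mean or wild-type.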

[5] = system: wild-type and variant SNAP-GIPR; experiment: Surface SNAP-GIPR expression (SNAP-tag labelling) in AD293 cells; settings: for AD293 Surface: Fig S3E, mean; for Surface SNAP-GIPR expression: sheet Fig 1C
Method in brief: as §2

[6] = system: wild-type and variant SNAP-GIPR; experiment: cADDis cAMP imaging in AD293 cells, ensemble, expression-matched and per decile; settings: Fig S3F, cADDis, mean;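 also: Ensemble cells as % of IBMX/FSK response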
Method in brief: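 AD293 cells were transfected with SNAP-GIPR constructs and cotransduced with the cADDis Green Up cAMP sensor, then labeled after 24 h with 500 nM SNAP-Surface Alexa Fluor 647. Per-cell cADDis intensity was tracked at 37°C in KRBH with 6 mM glucose and 0.1% BSA.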

[7] = system: wild-type and variant SNAP-GIPR; experiment: Single-concentration GIP cAMP response by HTRF in AD293 cells; settings: Fig S3F, HTRF, mean;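 also: ratio to experiment-wide average response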
Experimental: (§3) All variants were tested in parallel on each occasion to control for transfection efficiency differences between experiments.

[8] = system: wild-type and variant SNAP-GIPR; experiment: Single-concentration GIP cAMP response by HTRF in INS-1 cells; settings: Fig S3E, mean
Experimental: as §3

[9] = system: wild-type and variant SNAP-GIPR; experiment: Constitutive and agonist-mediated internalization, reversible SNAP-tag labelling, AD293 cells; parameters: key to Internalisation, Vehicle / Internalisation, +GIP / Internalisation, GIP-only: % internalization: residual fluorescence after Mesna vs pre-Mesna; Surface expression: unit not given here; settings: Mean
Method in brief: as §1

With CC[C@H](C)[C@H](NC(=O)OCc1ccccc1)C(=O)N[C@@H](CCC(=O)OC(C)(C)C)C(=O)N[C@@H](C)C(=O)N[C@H](C=O)CC(C)C [PSI] (Cbz-IE(OtBu)AL-aldehyde) the “total SNAP-GIPR level with PSI” value ([1]; E288G, replicate 1) was 0.3892, the “total SNAP-GIPR level with PSI” value ([1]; E288G, replicate 2) was 3.417 and the “total SNAP-GIPR level with PSI” value ([1]; E288G, replicate 3) was 2.001. The “total SNAP-GIPR level with PSI” value ([1]; E288G, replicate 4) was 0.9026, the “total SNAP-GIPR level with PSI” value ([1]; E288G, replicate 5) was 1.217 and the “total SNAP-GIPR level with PSI” value ([1]; E354Q, replicate 1) was 0.9055. For the same molecule, the “total SNAP-GIPR level with PSI” value ([1]; E354Q, replicate 2) was 0.737, the “total SNAP-GIPR level with PSI” value ([1]; E354Q, replicate 3) was 1.364 and the “total SNAP-GIPR level with PSI” value ([1]; E354Q, replicate 4) was 0.8268. For the same molecule, the “total SNAP-GIPR level with PSI” value ([1]; E354Q, replicate 5) was 0.8316, the “total SNAP-GIPR level after proteasomal inhibition” value ([1]; E288G) was “significant increase in E288G levels” and the “total SNAP-GIPR level after proteasomal inhibition” value ([1]; R190Q and R101H) was “numerically similar trends”. The “total SNAP-GIPR level after proteasomal inhibition” value ([1]; wild-type and E354Q) was “unaffected by proteasomal inhibition”, the “total SNAP-GIPR level with PSI” value ([1]; R101H, replicate 1) was 0.131 and the “total SNAP-GIPR level with PSI” value ([1]; R101H, replicate 2) was 0.3704. The “total SNAP-GIPR level with PSI” value ([1]; R101H, replicate 3) was 0.7801, the “total SNAP-GIPR level with PSI” value ([1]; R101H, replicate 4) was 0.651 and the “total SNAP-GIPR level with PSI” value ([1]; R101H, replicate 5) was 0.8591. For the same molecule, the “total SNAP-GIPR level with PSI” value ([1]; R190Q, replicate 1) was 0.3291, the “total SNAP-GIPR level with PSI” value ([1]; R190Q, replicate 2) was 0.5524 and the “total SNAP-GIPR level with PSI” value ([1]; R190Q, replicate 3) was 1.18. For the same molecule, the “total SNAP-GIPR level with PSI” value ([1]; R190Q, replicate 4) was 0.5932, the “total SNAP-GIPR level with PSI” value ([1]; R190Q, replicate 5) was 0.77 and the “total SNAP-GIPR level with PSI” value ([1]; WT, replicate 1) was 4.2848. The “total SNAP-GIPR level with PSI” value ([1]; WT, replicate 2) was 3.795, the “total SNAP-GIPR level with PSI” value ([1]; WT, replicate 3) was 3.454 and the “total SNAP-GIPR level with PSI” value ([1]; WT, replicate 4) was 1.746. The “total SNAP-GIPR level with PSI” value ([1]; WT, replicate 5) was 2.287.

With CO/C1=C\C(C)=C\[C@@H](C)[C@@H](O)[C@@H](C)C/C(C)=C/C=C/[C@H](OC)[C@@H]([C@@H](C)[C@@H](O)[C@H](C)[C@@]2(O)C[C@@H](O)[C@H](C)[C@@H](C(C)C)O2)OC1=O [bafilomycin A1] the “rescue of surface expression of GIPR variants” value [2] was “did not lead to disproportionate “rescue””.

B1: E252D (protein)
chain: RAETGSKGQTAGELYQRWERYRRECQETLAAAEPPSGLACNGSFDMYVCWDYAAPNATARASCPWYLPWHHHVAAGFVLRQCGSDGQWGLWRDHTQCENPEKNEAFLDQRLILERLQVMYTVGYSLSLATLLLALLILSLFRRLHCTRNYIHINLFTSFMLRAAAILSRDRLLPRPGPYLGDQALALWNQALAACRTAQIVTQYCVGANYTWLLVEGVYLHSLLVLVGGSDEGHFRYYLLLGWGAPALFVIPWVIVRYLYENTQCWERNEVKAIWWIIRTPILMTILINFLIFIRILGILLSKLRTRQMRCRDYRLRLARSTLTLVPLLGVHEVVFAPVTEEQARGALRFAKLGFEIFLSSFQGFLVSVLYCFINKEVQSEIRRGWHHCRLRRSLGEEQRQLPERAFRALPSGSGPGEVPTSRGLSSGTLPGPGNEASRELESYC
B1 was tested, and the “+GIP internalisation (100 nM)” value ([3]; Fig 4G, GIP 100 nM) was 0.6632, the “GIP-specific internalisation (100 nM)” value ([3]; Fig 4G, GIP 100 nM) was 0.1797 and the “Constitutive internalisation (100 nM)” value ([3]; Fig 4G) was 0.4835. The “Internalisation, +GIP” value ([3]; Fig S4C, INS-1) was 49.4067, the “Internalisation, GIP-only” value ([3]; Fig S4C, INS-1) was 13.4967 and the “Internalisation, Vehicle” value ([3]; Fig S4C, INS-1) was 35.91. The Surface expression [4] was 1.379, the “AD293 Surface” value ([5]; column repeated, paired with cAMP 100 nM) was 1.407 and the “AD293 Surface” value ([5]; paired with cAMP 100 pM) was 1.407. For the same molecule, the “Surface SNAP-GIPR expression” value ([5]; replicate 1) was 1.329, the “Surface SNAP-GIPR expression” value ([5]; replicate 2) was 1.136 and the “Surface SNAP-GIPR expression” value ([5]; replicate 3) was 2.323. For the same molecule, the “Surface SNAP-GIPR expression” value ([5]; replicate 4) was 1.309, the “Surface SNAP-GIPR expression” value ([5]; replicate 5) was 1.389 and the “Surface SNAP-GIPR expression” value ([5]; replicate 6) was 1.509. For the same molecule, the “Surface SNAP-GIPR expression” value ([5]; replicate 7) was 1.009, the “Surface SNAP-GIPR expression” value ([5]; replicate 8) was 1.58 and the “Surface SNAP-GIPR expression” value ([5]; replicate 9) was 1.305. For the same molecule, the “Surface SNAP-GIPR expression” value ([5]; replicate 10) was 1.452, the “Surface SNAP-GIPR expression” value ([5]; replicate 11) was 1.297 and the “Surface SNAP-GIPR expression” value ([5]; replicate 12) was 1.294. The “Surface SNAP-GIPR expression” value ([5]; replicate 13) was 1.499, the “Surface SNAP-GIPR expression” value ([5]; replicate 14) was 1.714 and the “Surface SNAP-GIPR expression” value ([5]; replicate 15) was 1.276. For the same molecule, the “Surface SNAP-GIPR expression” value ([5]; replicate 16) was 1.31, the “Surface SNAP-GIPR expression” value ([5]; replicate 17) was 1.201 and the “Surface SNAP-GIPR expression” value ([5]; replicate 18) was 1.327. The “Surface SNAP-GIPR expression” value ([5]; replicate 19) was 1.07, the “Surface SNAP-GIPR expression” value ([5]; replicate 20) was 1.361 and the “Surface SNAP-GIPR expression” value ([5]; replicate 21) was 1.327. For the same molecule, the “Surface SNAP-GIPR expression” value ([5]; replicate 22) was 1.295, the “Surface SNAP-GIPR expression” value ([5]; replicate 23) was 1.346 and the “Surface SNAP-GIPR expression” value ([5]; replicate 24) was 1.279. For the same molecule, the “Surface SNAP-GIPR expression” value ([5]; replicate 25) was 1.414, the “Surface SNAP-GIPR expression” value ([5]; replicate 26) was 1.49 and the “Surface SNAP-GIPR expression” value ([5]; replicate 27) was 1.461. The “Surface SNAP-GIPR expression” value ([5]; replicate 28) was 1.564, the “Surface SNAP-GIPR expression” value ([5]; replicate 29) was 1.396 and the “Surface SNAP-GIPR expression” value ([5]; replicate 30) was 1.388. For the same molecule, the “Surface SNAP-GIPR expression” value ([5]; replicate 31) was 2.074, the “Surface SNAP-GIPR expression” value ([5]; replicate 32) was 1.301 and the “Surface SNAP-GIPR expression” value ([5]; replicate 33) was 1.332. The “Surface SNAP-GIPR expression” value ([5]; replicate 34) was 1.623, the “Surface SNAP-GIPR expression” value ([5]; replicate 35) was 1.576 and the “Surface SNAP-GIPR expression” value ([5]; replicate 36) was 1.688. For the same molecule, the “Surface SNAP-GIPR expression” value ([5]; replicate 37) was 1.181, the “Surface SNAP-GIPR expression” value ([5]; replicate 38) was 1.286 and the “Surface SNAP-GIPR expression” value ([5]; replicate 39) was 1.291. For the same molecule, the “Surface SNAP-GIPR expression” value ([5]; replicate 40) was 1.349, the “Surface SNAP-GIPR expression” value ([5]; replicate 41) was 1.333 and the “AD293 100 pM cADDis” value ([6]; AD293, 100 pM) was 35.9603. The “AD293 100 nM cADDis” value ([6]; AD293, 100 nM) was 38.59, the “AD293 100 pM HTRF” value ([7]; AD293, 100 pM) was 2.258 and the “AD293 100 nM HTRF” value ([7]; AD293, 100 nM) was 1.787. For the same molecule, the “INS-1 cAMP (100 nM)” value [8] was 1.435, the “+GIP internalisation (100 nM)” value ([9]; Fig 4E, GIP 100 nM) was 0.7833 and the “GIP-specific internalisation (100 nM)” value ([9]; Fig 4E, GIP 100 nM) was 0.2173. The “Constitutive internalisation (100 nM)” value ([9]; Fig 4E) was 0.566, the Surface expression ([9]; Fig 4E) was 1.422 and the “Internalisation, +GIP” value ([9]; Fig S4C, AD293) was 55.2271. For the same molecule, the “Internalisation, GIP-only” value ([9]; Fig S4C, AD293) was 15.2317 and the “Internalisation, Vehicle” value ([9]; Fig S4C, AD293) was 39.9954.
